The assay concerns the target Drosophila Eggless/SetDB1 tandem Tudor domains (3TD, aa 444-700), wild type (Drosophila) (UniProt Q32KD2). In words: SPR.
Chain of UniProt Q32KD2 (Q32KD2 444-700): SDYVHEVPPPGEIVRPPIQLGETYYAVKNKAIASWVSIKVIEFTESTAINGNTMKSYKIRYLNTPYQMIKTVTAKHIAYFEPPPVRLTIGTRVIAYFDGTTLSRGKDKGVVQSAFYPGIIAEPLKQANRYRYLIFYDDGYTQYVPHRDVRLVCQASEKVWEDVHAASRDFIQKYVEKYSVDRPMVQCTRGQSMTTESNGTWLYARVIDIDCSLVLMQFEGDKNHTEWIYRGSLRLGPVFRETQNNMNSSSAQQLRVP

As for H3K14ac peptide, the dissociation constant Kd is 486 µM.

As a reminder, the Kd is the constant that tells how readily two partners part at equilibrium. Read a high Kd as lower affinity.

Source of the values: publication doi:10.1101/2023.12.10.570967.
